Results published in patent US20260124210A1.

Molecular target: mouse PD-L1 (surface receptor on LLC-JSP and 4T1 murine cancer cells) (mouse) (UniProt Q9EP73)
Test: flow cytometry uptake of dye-siRNA tagged p-iPLK1-NP by 4T1 cells, 1 h exposure (FIG. 11B)

Chain of mouse PD-L1 (surface receptor on LLC-JSP and 4T1 murine cancer cells) (mouse) (Q9EP73 19-290): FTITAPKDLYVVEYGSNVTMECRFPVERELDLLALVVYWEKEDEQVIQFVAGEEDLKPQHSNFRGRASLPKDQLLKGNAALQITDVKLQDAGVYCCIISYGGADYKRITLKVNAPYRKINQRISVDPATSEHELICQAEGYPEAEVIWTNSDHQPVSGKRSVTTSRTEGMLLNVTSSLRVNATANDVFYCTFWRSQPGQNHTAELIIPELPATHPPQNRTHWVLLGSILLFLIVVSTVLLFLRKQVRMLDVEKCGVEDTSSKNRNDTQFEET

For “p-iPLK1-NP (mesoporous silica nanoparticle coated with PEI and PEG, loaded with PLK1 inhibitor volasertib and conjugated with mouse PD-L1 antibody)”, the cellular uptake, PD-L1 high cells vs. PD-L1 low cells (fold) was 4 fold.
